B1: target 1 G13U,G15A (mixed)
RNA 1: CACCCGUGCAAAAAUGCAGGGGUCUAAAACUGAGCGGAUAACCUCUCUAUGG
RNA 2: GGGAAUGGAUCCACAUCUACGAAUUCGUACCAUAGAAAUGUUAUCCGCUCACCGAGAUCGGAAGAGCACACGU
B2: target 1 insG 3' of 19,insA 3' of 11 (mixed)
RNA 1: B1 RNA 1
RNA 2: GGGAAUGGAUCCACAUCUACGAAUUCGUACCAUGAGAGAGGUAUAUCCGCUCACCGAGAUCGGAAGAGCACACGU
B3: target 1 insC 3' of 9,insA 3' of 2 (mixed)
RNA 1: B1 RNA 1
RNA 2: GGGAAUGGAUCCACAUCUACGAAUUCGUACCAUAGAGAGGUUACUCCGCUCAACCGAGAUCGGAAGAGCACACGU
B4: target 2 MT 5'PFS UCU 3'PFS UCC (mixed)
RNA 1: CACCCGUGCAAAAUUGCAGGGGUCUAAAACCUUCUCCAAAUUGUUUCAUCCU
RNA 2: GGGAAUGGAUCCACAUCUACGAAUUCUCUAGGAUGAAACAAUUUGGAGAAGUCCAGAUCGGAAGAGCACACGU
B5: target 2 MT 5'PFS ACG 3'PFS UAG (mixed)
RNA 1: B4 RNA 1
RNA 2: B4 RNA 2 with U27A, U29G, C53A, C54G
B6: target 2 MT 5'PFS GAC 3'PFS UUC (mixed)
RNA 1: B4 RNA 1
RNA 2: B4 RNA 2 with U27G, C28A, U29C, C53U
B7: target 2 MT 5'PFS GAG 3'PFS CCA (mixed)
RNA 1: B4 RNA 1
RNA 2: B4 RNA 2 with U27G, C28A, U29G, U52C, C54A
B8: target 2 MT 5'PFS CUU 3'PFS CGG (mixed)
RNA 1: B4 RNA 1
RNA 2: B4 RNA 2 with U27C, C28U, U52C, C53G, C54G
B9: target 2 MT 5'PFS UAA 3'PFS UAC (mixed)
RNA 1: B4 RNA 1
RNA 2: B4 RNA 2 with C28A, U29A, C53A
B10: target 2 MT 5'PFS AGG 3'PFS UAA (mixed)
RNA 1: B4 RNA 1
RNA 2: B4 RNA 2 with U27A, C28G, U29G, C53A, C54A
B11: target 2 MT 5'PFS GCC 3'PFS AUG (mixed)
RNA 1: B4 RNA 1
RNA 2: B4 RNA 2 with U27G, U29C, U52A, C53U, C54G
B12: target 2 MT 5'PFS UGA 3'PFS AGA (mixed)
RNA 1: B4 RNA 1
RNA 2: B4 RNA 2 with C28G, U29A, U52A, C53G, C54A
B13: target 2 MT 5'PFS AAG 3'PFS CUC (mixed)
RNA 1: B4 RNA 1
RNA 2: B4 RNA 2 with U27A, C28A, U29G, U52C, C53U
B14: target 2 MT 5'PFS CUU 3'PFS CGA (mixed)
RNA 1: B4 RNA 1
RNA 2: B4 RNA 2 with U27C, C28U, U52C, C53G, C54A
B15: target 2 MT 5'PFS AGU 3'PFS AAU (mixed)
RNA 1: B4 RNA 1
RNA 2: B4 RNA 2 with U27A, C28G, U52A, C53A, C54U
B16: target 2 MT 5'PFS GUG 3'PFS AAC (mixed)
RNA 1: B4 RNA 1
RNA 2: B4 RNA 2 with U27G, C28U, U29G, U52A, C53A
B17: target 2 MT 5'PFS GAG 3'PFS CCU (mixed)
RNA 1: B4 RNA 1
RNA 2: B4 RNA 2 with U27G, C28A, U29G, U52C, C54U
B18: target 2 MT 5'PFS GUG 3'PFS AAU (mixed)
RNA 1: B4 RNA 1
RNA 2: B4 RNA 2 with U27G, C28U, U29G, U52A, C53A, C54U
B19: target 2 MT 5'PFS UAA 3'PFS UAA (mixed)
RNA 1: B4 RNA 1
RNA 2: B4 RNA 2 with C28A, U29A, C53A, C54A
B20: target 2 MT 5'PFS GCC 3'PFS AUA (mixed)
RNA 1: B4 RNA 1
RNA 2: B4 RNA 2 with U27G, U29C, U52A, C53U, C54A
B21: target 2 MT 5'PFS GAC 3'PFS UUG (mixed)
RNA 1: B4 RNA 1
RNA 2: B4 RNA 2 with U27G, C28A, U29C, C53U, C54G
B22: target 2 MT 5'PFS AGA 3'PFS CCA (mixed)
RNA 1: B4 RNA 1
RNA 2: B4 RNA 2 with U27A, C28G, U29A, U52C, C54A
B23: target 2 MT 5'PFS GCC 3'PFS AUC (mixed)
RNA 1: B4 RNA 1
RNA 2: B4 RNA 2 with U27G, U29C, U52A, C53U
B24: target 2 MT 5'PFS CUU 3'PFS AGU (mixed)
RNA 1: B4 RNA 1
RNA 2: B4 RNA 2 with U27C, C28U, U52A, C53G, C54U
B25: target 2 MT 5'PFS CUU 3'PFS CGC (mixed)
RNA 1: B4 RNA 1
RNA 2: B4 RNA 2 with U27C, C28U, U52C, C53G
B26: target 2 MT 5'PFS GUG 3'PFS AAA (mixed)
RNA 1: B4 RNA 1
RNA 2: B4 RNA 2 with U27G, C28U, U29G, U52A, C53A, C54A
B27: target 2 MT 5'PFS GAG 3'PFS CCG (mixed)
RNA 1: B4 RNA 1
RNA 2: B4 RNA 2 with U27G, C28A, U29G, U52C, C54G
B28: target 2 MT 5'PFS AAG 3'PFS CUA (mixed)
RNA 1: B4 RNA 1
RNA 2: B4 RNA 2 with U27A, C28A, U29G, U52C, C53U, C54A
B29: target 2 MT 5'PFS AGA 3'PFS CCG (mixed)
RNA 1: B4 RNA 1
RNA 2: B4 RNA 2 with U27A, C28G, U29A, U52C, C54G
B30: target 2 MT 5'PFS AGU 3'PFS AAG (mixed)
RNA 1: B4 RNA 1
RNA 2: B4 RNA 2 with U27A, C28G, U52A, C53A, C54G
B31: target 2 MT 5'PFS AAG 3'PFS CUG (mixed)
RNA 1: B4 RNA 1
RNA 2: B4 RNA 2 with U27A, C28A, U29G, U52C, C53U, C54G
B32: target 2 MT 5'PFS AAA 3'PFS AAA (mixed)
RNA 1: B4 RNA 1
RNA 2: B4 RNA 2 with U27A, C28A, U29A, U52A, C53A, C54A
B33: target 2 MT 5'PFS GAC 3'PFS UUA (mixed)
RNA 1: B4 RNA 1
RNA 2: B4 RNA 2 with U27G, C28A, U29C, C53U, C54A
B34: target 2 MT 5'PFS UAA 3'PFS UAU (mixed)
RNA 1: B4 RNA 1
RNA 2: B4 RNA 2 with C28A, U29A, C53A, C54U
B35: target 2 MT 5'PFS GUG 3'PFS AAG (mixed)
RNA 1: B4 RNA 1
RNA 2: B4 RNA 2 with U27G, C28U, U29G, U52A, C53A, C54G

Numbering of substitutions follows the chain as printed. Numbers in names are those of the source.

Broadly, the Kd is the free concentration of one partner at which half of the binding sites on the other are occupied at equilibrium, for simple one-to-one binding.

This data set has as its target T1, EsCas13d, nuclease-dead (Eubacterium siraeum, UniProt B0MS50, R295A;H300A;R849A;H854A).
T1 sequence: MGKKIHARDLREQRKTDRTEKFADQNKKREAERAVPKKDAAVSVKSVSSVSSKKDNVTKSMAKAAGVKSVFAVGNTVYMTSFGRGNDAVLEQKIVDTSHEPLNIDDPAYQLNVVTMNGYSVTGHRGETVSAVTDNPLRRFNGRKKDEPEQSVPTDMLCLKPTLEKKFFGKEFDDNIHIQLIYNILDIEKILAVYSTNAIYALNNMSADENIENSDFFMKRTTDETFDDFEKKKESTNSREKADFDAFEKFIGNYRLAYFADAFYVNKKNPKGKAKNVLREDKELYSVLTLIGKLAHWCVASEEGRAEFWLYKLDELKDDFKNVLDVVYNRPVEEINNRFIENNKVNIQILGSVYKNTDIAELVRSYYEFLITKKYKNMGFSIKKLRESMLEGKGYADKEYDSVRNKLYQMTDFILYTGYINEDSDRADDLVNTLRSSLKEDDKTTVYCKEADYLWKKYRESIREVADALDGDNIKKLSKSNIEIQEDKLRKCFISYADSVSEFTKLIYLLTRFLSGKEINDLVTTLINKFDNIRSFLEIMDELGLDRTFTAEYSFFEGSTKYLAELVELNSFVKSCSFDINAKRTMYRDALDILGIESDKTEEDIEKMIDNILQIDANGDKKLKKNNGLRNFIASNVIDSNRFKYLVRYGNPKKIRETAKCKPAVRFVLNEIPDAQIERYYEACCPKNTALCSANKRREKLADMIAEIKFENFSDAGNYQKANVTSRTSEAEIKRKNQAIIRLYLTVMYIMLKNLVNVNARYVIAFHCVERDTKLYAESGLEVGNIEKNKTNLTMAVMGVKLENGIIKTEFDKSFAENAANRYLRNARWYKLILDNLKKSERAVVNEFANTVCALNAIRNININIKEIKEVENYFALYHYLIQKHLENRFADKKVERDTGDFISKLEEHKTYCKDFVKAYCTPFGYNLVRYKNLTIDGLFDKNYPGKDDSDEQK
In words: crRNA (strand 1, pre-loaded); Mg2+; 40 mM Tris-HCl pH 7.5, 150 mM NaCl, 6 mM MgCl2, 1 mM DTT, 0.1% Tween-20, 0.2 mg/ml BSA; 25 C; 10 min per concentration, then washed. The note with it: tags: His6-TwinStrep-SUMO cleaved; N-terminal SNAP kept (SNAP-Surface 488); label: 3' end held by stalled T7 RNA polymerase.
Take B1: binding was characterised by a dissociation constant (Kd) of 22 ± 4 nM.

In the case of B2, the Kd came to 89 ± 16 nM. For B3 the value was 12.3 ± 0.7 nM. As to B4, the equilibrium dissociation constant (Kd) came to 7.2 ± 0.7 nM. Next, B5: 4.6 ± 1.1 nM. As for B6, binding was characterised by a dissociation constant (Kd) of 33 ± 12 nM. Next, B7: 17.2 ± 2.6 nM. For B8 the value was 2.9 ± 0.4 nM; for B9, 7.1 ± 1.6 nM. The molecule B10 yielded a Kd of 4.9 ± 1.1 nM. Next, B11: 12.9 ± 1.1 nM; B12: 5.4 ± 0.5 nM. The molecule B13 registered a Kd of 10 ± 1.6 nM. Next, B14: 3.4 ± 0.4 nM; B15: 7.6 ± 1 nM. Consider B16, for which the Kd amounted to 10.5 ± 1.6 nM. On to B17, for which the equilibrium dissociation constant (Kd) was ~130 nM.

On to B18, for which binding was put at a Kd of 8.6 ± 1 nM. For B19 the value was 4.8 ± 1.3 nM; for B20, 10.4 ± 1.8 nM; for B21, 15 ± 4 nM. For B22 the value was ~24 nM. For B23 the value was 12.7 ± 1.1 nM; for B24, 3.1 ± 0.4 nM. With B25, the Kd amounted to 5 ± 0.4 nM. For B26 the value was 9.7 ± 1.4 nM. For B27 the value was 6.77 ± 0.3 nM; for B28, 4.4 ± 0.6 nM. Next, B29: 8.3 ± 1.1 nM. Take B30: the Kd stood at 11 ± 2.4 nM.

Molecule B31 had a Kd of 4.9 ± 0.7 nM. For B32 the value was 4.9 ± 1.3 nM; for B33, 14.3 ± 3 nM; for B34, 3.7 ± 1 nM.

In the case of B35, binding was put at a Kd of 12.4 ± 1.8 nM.

The values are drawn from publication PMC10786891, “Massively parallel profiling of RNA-targeting CRISPR-Cas13d”.
